Reference: patent publication US20240173426A1 (Regeneron, published 2024)

T1: human FGFR3b expressed with a C-terminal myc-myc-hexahistidine tag (hFGFR3b.mmH) (human)
T1 construct: monomeric; also called REGN3152; monomeric human FGFR3b
T1 chain: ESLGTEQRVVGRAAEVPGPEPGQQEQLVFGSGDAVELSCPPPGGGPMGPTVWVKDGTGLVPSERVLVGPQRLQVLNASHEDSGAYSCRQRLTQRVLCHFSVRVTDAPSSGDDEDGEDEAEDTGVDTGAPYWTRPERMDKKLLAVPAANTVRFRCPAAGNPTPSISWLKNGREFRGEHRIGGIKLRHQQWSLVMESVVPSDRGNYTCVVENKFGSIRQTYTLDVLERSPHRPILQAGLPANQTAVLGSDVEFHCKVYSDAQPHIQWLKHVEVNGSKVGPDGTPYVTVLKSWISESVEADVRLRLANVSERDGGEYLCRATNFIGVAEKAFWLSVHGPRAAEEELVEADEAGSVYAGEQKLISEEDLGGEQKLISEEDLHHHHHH

T2: cynomolgus FGFR3b expressed with a C-terminal myc-myc-hexahistidine tag (mfFGFR3b.mmH) (cynomolgus)
T2 construct: The name states R357G; also called REGN3521; mf FGFR3b ecto (R357G) (E23-G377;R357G).mmH
T2 chain: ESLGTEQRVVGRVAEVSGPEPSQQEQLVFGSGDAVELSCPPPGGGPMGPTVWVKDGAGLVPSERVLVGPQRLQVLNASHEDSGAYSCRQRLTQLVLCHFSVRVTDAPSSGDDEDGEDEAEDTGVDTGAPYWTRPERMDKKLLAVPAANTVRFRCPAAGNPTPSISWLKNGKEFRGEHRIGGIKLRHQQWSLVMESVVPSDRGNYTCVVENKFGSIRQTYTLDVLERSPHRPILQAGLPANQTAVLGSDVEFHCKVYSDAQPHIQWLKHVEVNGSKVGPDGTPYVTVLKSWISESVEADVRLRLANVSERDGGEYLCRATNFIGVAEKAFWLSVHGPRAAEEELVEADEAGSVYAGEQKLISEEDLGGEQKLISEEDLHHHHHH

T3: human FGFR3b expressed with a C-terminal murine Fc tag (hFGFR3b.mFc) (human)
T3 construct: called dimeric; also called REGN3153; dimeric human FGFR3b
T3 chain: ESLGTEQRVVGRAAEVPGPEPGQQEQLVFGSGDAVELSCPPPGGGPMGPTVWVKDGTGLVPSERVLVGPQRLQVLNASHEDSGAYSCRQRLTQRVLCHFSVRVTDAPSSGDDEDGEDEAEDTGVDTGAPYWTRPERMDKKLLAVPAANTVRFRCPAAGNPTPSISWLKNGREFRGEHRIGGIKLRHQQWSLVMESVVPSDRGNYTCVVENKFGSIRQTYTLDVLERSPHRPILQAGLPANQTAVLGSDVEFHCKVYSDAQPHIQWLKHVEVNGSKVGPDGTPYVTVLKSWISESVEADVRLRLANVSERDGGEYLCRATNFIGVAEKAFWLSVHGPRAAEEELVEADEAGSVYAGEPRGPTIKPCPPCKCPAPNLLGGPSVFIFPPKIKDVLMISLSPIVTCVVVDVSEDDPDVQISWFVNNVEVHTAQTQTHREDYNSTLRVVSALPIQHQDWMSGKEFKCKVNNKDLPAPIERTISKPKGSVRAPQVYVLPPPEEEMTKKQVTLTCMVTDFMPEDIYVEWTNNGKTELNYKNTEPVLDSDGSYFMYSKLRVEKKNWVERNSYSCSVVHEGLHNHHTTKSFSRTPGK

T4: murine FGFR3b expressed with a C-terminal myc-myc-hexahistidine tag (mFGFR3b.mmH) (mouse)
T4 construct: monomeric; also called REGN3215; monomeric murine FGFR3b
T4 chain: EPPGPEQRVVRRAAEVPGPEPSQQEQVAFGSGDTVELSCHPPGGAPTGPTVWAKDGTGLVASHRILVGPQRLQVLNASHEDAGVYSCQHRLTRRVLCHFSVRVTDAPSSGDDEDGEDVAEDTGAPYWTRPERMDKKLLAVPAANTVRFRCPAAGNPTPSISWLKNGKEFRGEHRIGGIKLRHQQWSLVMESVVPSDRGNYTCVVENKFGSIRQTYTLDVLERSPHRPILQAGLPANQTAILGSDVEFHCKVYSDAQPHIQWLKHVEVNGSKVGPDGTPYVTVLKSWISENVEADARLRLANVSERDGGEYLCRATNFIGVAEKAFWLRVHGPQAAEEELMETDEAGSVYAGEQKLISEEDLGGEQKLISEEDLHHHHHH


Tests used:
Assay in all cases: SPR (Biacore), captured mAb, 25 C
[1] = biological target: T1, human FGFR3b expressed with a …
Method: (§1) The CM5 Biacore sensor surface was derivatized by amine coupling with a monoclonal mouse anti-human Fc monoclonal antibody (REGN2567). All Biacore binding studies were performed in a buffer composed of 0.01M HEPES pH 7.4, 0.15 M NaCl, 3 mM EDTA, 0.05% v/v Surfactant P20 (HBS-EP running buffer). […] Antibody-reagent association was monitored for 5 minutes while dissociation in HBS-EP running buffer was monitored for 10 minutes. At the end of each cycle, the anti-FGFR3 antibody capture surface was regenerated using a 10 sec injection of 20 mM phosphoric acid. All binding kinetics experiments were performed at 25° C.
(§2) The specific SPR-Biacore sensorgrams were obtained by a double referencing procedure. The double referencing was performed by first subtracting the signal of each injection over a reference surface (anti-hFc) from the signal over the experimental surface (anti-hFc-captured anti-FGFR3 antibodies) thereby removing contributions from refractive index changes. In addition, running buffer injections were performed to allow subtraction of the signal changes resulting from the dissociation of captured antibodies from the coupled anti-hFc surface. Kinetic association (kₐ) and dissociation (kd) rate constants were determined by fitting the real-time sensorgrams to a 1:1 binding model using Scrubber v2.0c curve fitting software.

[2] = biological target: T5, human FGFR3c expressed with a C-terminal myc-myc-hexahistidine tag (hFGFR3c.mmH) (human, UniProt P22607 23-375)
T5 construct: monomeric; also called REGN3155; monomeric human FGFR3c
Method: as §1, §2

[3] = biological target: T2, cynomolgus FGFR3b expressed with a …
Method: as §1, §2

[4] = biological target: T3, human FGFR3b expressed with a …
Method: as §1, §2

[5] = biological target: T4, murine FGFR3b expressed with a …
Method: as §1, §2

| koff [1] [s⁻¹] | kon [1] [M⁻¹ s⁻¹] | t½ [1] [min] | koff [2] [s⁻¹] | kon [2] [M⁻¹ s⁻¹] | t½ [2] [min] | t½ [3] [min] | t½ [4] [min] | t½ [5] [min] | Binder |
| --- | --- | --- | --- | --- | --- | --- | --- | --- | --- |
| 0.000616 | 883000 | 18.8 | 0.00132 | 544000 | 8.77 |  |  |  | anti-FGFR3-hIgG1 comparator (REGN6331) (antibody, V domains shown, Human IgG1 comparator; also called COMP6331; anti-FGFR3 comparator antibody) VH: EVQLVESGGGLVQPGGSLRLSCAASGFTFTSTGISWVRQAPGKGLEWVGRIYPTSGSTNYADSVKGRFTISADTSKNTAYLQMNSLRAEDTAVYYCARTYGIYDLYVDYTEYVMDYWGQGTLVTVSS VL: DIQMTQSPSSLSASVGDRVTITCRASQDVDTSLAWYKQKPGKAPKLLIYSASFLYSGVPSRFSGSGSGTDFTLTISSLQPEDFATYYCQQSTGHPQTFGQGTKVEIKR |
|  |  | 132 |  |  | 146 | 118 | ≥ 1160 |  | H4H30061P (antibody, human IgG4 S228P, kappa, V domains shown) VH: EVQLVESGGGLAQPGGSLKLSCEASGFTFSDSAMHWVRQASGKGLEWVGRIRSKANSYATGYAASVKGRFTISRDDSKNMAFLEMNSLKTEDTAVYYCLRQTYGDPWGQGTLVTVSS VL: DVVMTQSPLSLSVTLGQPASISCRSSLSLVYSDGNNYLNWFQQRPGQSPRRLLYKVFNRDSGVPDRFSGSGSGTDFTLKISRVEAEDVGVYYCMQGTHWPWTFGQGTKVEIKR |
|  |  | 2.3 |  |  | 1.8 | 1.4 |  | 9.5 | H4H30105P2 (antibody, human IgG4 S228P, kappa, V domains shown) VH: EVQLVQSGAEVKKPGESLKISCKGSGYSFTSYWIAWVRQMPGKGLEWMGIIYPGDSDTRYSPSFQGQVTMSADKSIRIAYLQWSSLKASDTAMYYCARLDYSGSWFDYWGQGTLVTVSS VL: not shown |
|  |  | 1.9 |  |  | 1.5 | 1.3 | 71.8 |  | H4H30045P (antibody, human IgG4 S228P, kappa, V domains shown) VH: QVQLVQSGAEVKKPGASVKVSCKTSGYRFVNYGFSWVRQAPGQGLEWMGWISPYNGNTNYIQNLQDRITMTTDTSTNTAYMELTNLRSDDTAVYYCATLTGVHFDYWGQGTLVTVSS VL: AIQMTQSPSSLSASVGDRVTITCRASQGIRNDLGWYQQKPGKAPNLLIFETSRLQSGVPSRFSGSGSGTDFTLTINSLQPEDFATYYCLQDYNYPWTFGQGTKVEIKR |
|  |  |  |  |  |  | 50.2 |  |  | H4H30102P2 (antibody, human IgG4 S228P, kappa, V domains shown) VH: EVQLVESGGDLVQPGGSLRLSCAASGFTFSSYEMNWVRQAPGKGLEWVSYISNSGSTIYYADSVKGRFTISRDNAETSLYLQMNSLRAEDTAVYYCAREGWGAYCAGDCYSGFDIWGQGTMVTVSS VL: not shown |
|  |  | 4.1 |  |  |  | 5.2 | 608 | 4.9 | H4H30089P2 (antibody, human IgG4 S228P, kappa, V domains shown) VH: EVQLVESGGGLVQPGGSLRLSCIVSGFIFSSYEMSWLRQAPGKGLEWISYISSSGRVIYYADSVKGRFTISRDSAKNSLYLEMNSLRAEDTAIYYCTRKWDSSGPFDFWGQGTLVTVSS VL: not shown |
|  |  | 72.6 |  |  |  | 85.2 |  | 5.8 | H4H30108P2 (antibody, human IgG4 S228P, kappa, V domains shown) VH: QVQLVQSGAEVKKPGASVKVSCKASGYTFNSYDVNWVRQATGQGLEWMGWMNPHSGNTGYAQKFQGRVTMTRDTSTSTSYMELSSLTSEDTAVYYCARGPFSLLSAEFFQHWGQGTLVTVSS VL: not shown |
|  |  | 302 |  |  |  | 275 | ≥ 1160 | 416 | H4H30063P (antibody, human IgG4 S228P, kappa, V domains shown, Tested as whole antibody; also called anti-FGFR3b antibody H4H30063P) VH: QVQLQESGPGLVKPSETLSLTCTVSGDSINSYFWSWIRQLPGKELEWIGHIYSSGSTRYNPSLQSRVTISIDTSKNQFSLKLSSVTAADTAVYYCARGASAVDYWGQGTLVTVSS VL: EIVLTQSPGTLSLSPGERATLSCRTSQSISSGYLAWYQQKPGQAPRLLIYGASRRATGIPDRFSGSGSGTDFTLTISRLEPEDFVVYYCQQYGSSPYTFGQGTKLEIKR |
|  |  | 1.8 |  |  | 1.6 | 1.3 | 87 |  | H4H30117P2 (antibody, human IgG4 S228P, kappa, V domains shown) VH: QVQLVQSGAEVKKPGSSVKVSCKASGDTFSNYVIGWVRQAPGQGLEWMGGIIPIFGTTNYAQQFQGRVTITTDESTSTAYMELSSLRSEDTAVYYCARDGNYGDYFDYWGQGTLVTVSS VL: not shown |
|  |  | 390 |  |  |  | 520 | ≥ 1160 | 6.9 | H4H30071P (antibody, human IgG4 S228P, kappa, V domains shown) VH: QVQLQQSGPGLVKPSQTLSLTCAISGDSVSRNSAAWNWIRQSPSSGLEWLGRTYYRSKWFYDYAISVKSRITVNPDTSKNQFSLHLNSVTPEDTAVYYCARGYGGYEDYFDYWGQGTLVTVSS VL: DIQMTQSPSSVSASVGDRVTITCRASQGISSWLAWYQQKPGKAPKLLIYGASSLQSGVPSRFSGSGSGTDFTLTISSLQPEDFATYFCQQGSSFPYTFGQGTKLEIKR |
|  |  | 263 |  |  |  | 350 | ≥ 1160 | 320 | H4H30076P (antibody, human IgG4 S228P, kappa, V domains shown) VH: EVQLVESGGGLVQPGGSLRLSCAASGFTVSSNYMSWVRQAPGKGLEWVSIIYSGGHTYYSDSVKGRFTISRHNSKNTLYLQMNSLRGGDTAVYYCARGYTSGWYGFDFWGQGTLVTVSS VL: DIQMTQSPSSVSASVGDRVTITCRASQGISTWLAWYQQKPGKAPKLLIYAASSLQSGVPSRFSGTGSGTDFTLTISSLQPEDFATYYCQQTNSFPWTFGQGTKVEIKR |
|  |  | 18.2 |  |  |  | 14.8 | ≥ 1160 | 2.4 | H4H30066P (antibody, human IgG4 S228P, kappa, V domains shown) VH: QVQLVQSGAEVKKPGASVKVSCKVSGYTLTELSMHWVRQAPGKGLEWMGGFDPEDGEIIYAQKFQGRVTMTEDTSTDTAYMDLSSLTSEDTAVYYCATEKQQLVRKYYFYYGLAVWGQGTTVTVSS VL: not shown |
|  |  | 2.3 |  |  | 2.5 | 2.6 | 117 |  | H4H30095P2 (antibody, human IgG4 S228P, kappa, V domains shown) VH: QVQLVQSGVEVKKPGASVKVSCKASGYTFKFYGISWVRQAPGQGLEWMGWISVYNGKTKYAQKLQGRVTMTTDTSTSTAYMELRSLRSDDTAVYFCARDGDYESSGYPFDYWGQGTLVTVSS VL: not shown |
